Experiments:
Assay in all cases: FRET or BRET
[1] = molecular target: calpain-2 Cys105Ala-CCPGCC-H6 (rat) labelled with LumioGreen, with the truncated small subunit (rat) (UniProt Q07009)
[2] = molecular target: calpain-2 Cys105Ala-eGFP-H6 (rat) with the truncated small subunit (rat) (UniProt Q07009)
[3] = molecular target: labeled calpastatin fragments (competition by non-fluorigenic calpains)

increase in EmAcc/EmDon on addition of calcium [1]	increase in EmAcc/EmDon on addition of calcium [2]	maximal calcium-dependent increase in EmAcc/EmDon (average) [2]	FRET efficiency [2]	Substance	also measured
330%	99.9%			cL-ABC-D1 Cys241Ser Ser142Cys labelled with AlexaFluor546 (from UniProt P20810 114-270) (domain or fragment)	
330%				cL-ABC-D1 Cys241Ser Ser148Cys labelled with TMR (from UniProt P20810 114-270) (domain or fragment)	
330%	99.9%	0.45	32.7%	cL-ABC-D1 Cys241Ser Ser151Cys labelled with AlexaFluor546 (from UniProt P20810 114-270) (domain or fragment)	
330%				cL-ABC-D1 Cys241Ser Ser142Cys labelled with TMR (from UniProt P20810 114-270) (domain or fragment)	

Further lines, the substance ahead of its results:

Substance	increase in EmAcc/EmDon on addition of calcium [1]	increase in EmAcc/EmDon on addition of calcium [2]	maximal calcium-dependent increase in EmAcc/EmDon (average) [2]	FRET efficiency [2]	also measured
porcine erythrocyte calpain 1 (from UniProt P35750 1-714; P04574 1-266) (complex)					inhibition of FRET at ~0.35 μM competitor [3]: 50%
cL-ABC-D1 Cys241Ser Ser148Cys labelled with AlexaFluor546 (from UniProt P20810 114-270) (domain or fragment)	330%	99.9%	0.45		
cL-AtB-D1 Ser142Cys labelled with AlexaFluor546 (from UniProt P20810 114-202) (domain or fragment)		66.7%			
calpain-2 Cys105Ala (rat), non-fluorigenic, with the truncated small subunit (from UniProt Q07009 20-700) (complex)					inhibition of FRET at ~0.35 μM competitor [3]: 50%
cL-ABC-D1-Cys241Ser-Ala246Cys Alexafluor546 (from UniProt P20810 114-270) (domain or fragment)		99.9%	0.45	33.5%	absolute increase in EmAcc/EmDon on addition of calcium (2.5 mM) [2]: 0.456; increase in EmAcc/EmDon on addition of calcium (2.5 mM), single assay [2]: 70%
cL-AtB-D1-Ser151Cys-Alexafluor546 (from UniProt P20810 114-202) (domain or fragment)		66.7%	0.169	25.3%	absolute increase in EmAcc/EmDon on addition of calcium (2.5 mM) [2]: 0.22; increase in EmAcc/EmDon on addition of calcium (2.5 mM), single assay [2]: 64.4%
cL-ABC-D1 Cys241Ser Ser223Cys labelled with AlexaFluor546 (from UniProt P20810 114-270) (domain or fragment)		34.1%		13.2%	
cL-AtB-D1 Ser148Cys labelled with AlexaFluor546 (from UniProt P20810 114-202) (domain or fragment)		66.7%	0.169		
cL-ABC-D1 Cys241Ser Ser151Cys labelled with TMR (from UniProt P20810 114-270) (domain or fragment)	330%				

Reference: paper PMC2646846
